Where two headings read alike, the source gives them in different places.

For experiment [1], the target named is T1, NY-ESO-1 (human, UniProt P78358 1-180). The experiment can be described thus: SPR. On the technique in general: In SPR one partner is held on a chip, and binding of the other changes the refractive index at the surface.
The target of experiment [2] is T1, NY-ESO-1. Nature of the experiment: SPR. This is another data set of the same source.

T1 sequence (P78358 whole entry): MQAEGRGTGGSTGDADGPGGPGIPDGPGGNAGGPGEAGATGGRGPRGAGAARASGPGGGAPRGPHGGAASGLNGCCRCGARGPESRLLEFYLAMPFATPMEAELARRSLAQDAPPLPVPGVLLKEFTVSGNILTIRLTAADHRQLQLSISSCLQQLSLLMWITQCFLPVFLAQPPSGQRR

B1: BC2-3G1 (antibody, V domains shown)
VH: QVQLQQSGPGLVKPSQTLSLTCAISGDSVSSNSAAWNWIRQSPSRGLEWLGRTYYRSKWYNDYAVSVKSRITINPDTSKNQFSLQLNSVTPEDTAVYYCARDLGIAAAGDFDYWGQGTLVTVSS
VL: EIVLTQSPATLSLSPGERATLSCRASQGVSSYLAWYQQKPGQAPRLLIYDASNRATGIPARFSGSGSGTDFTLTISSLEPEDFAVYYCHQGSNWPTFGGGTKVEI
In general, Kd refers to the concentration at which binding is half-saturated. Regarding B1, the Kd in the experiment with NY-ESO-1 [1] and in the experiment with NY-ESO-1 [2] was 37 nM in each case.

Source of the values: US20200270704A1 (published 2020).
